{
  "source": "paper PMC2259325",
  "about": "“Hepatitis C virus NS5A protein binds the SH3 domain of the Fyn tyrosine kinase with high affinity: mutagenic analysis of residues within the SH3 domain that contribute to the interaction” (Virology Journal, 2008)",
  "binders": {"B1": {"name": "GST-Fyn SH3 domain fusion protein (wild type) (domain or fragment)", "chain": "not shown", "notes": "source: expressed and purified as previously described [6]"}},
  "molecular_target": "T1, NS5A(Δ32), N-terminally truncated hepatitis C virus non-structural 5A protein (hepatitis C virus (genotype 1b, J4 …, UniProt O92972 2005-2419))",
  "T1 construct": "source: E. coli BL21 pLysS (DE3), purified (Ni-NTA, gel filtration on Superdex75)",
  "T1 sequence": "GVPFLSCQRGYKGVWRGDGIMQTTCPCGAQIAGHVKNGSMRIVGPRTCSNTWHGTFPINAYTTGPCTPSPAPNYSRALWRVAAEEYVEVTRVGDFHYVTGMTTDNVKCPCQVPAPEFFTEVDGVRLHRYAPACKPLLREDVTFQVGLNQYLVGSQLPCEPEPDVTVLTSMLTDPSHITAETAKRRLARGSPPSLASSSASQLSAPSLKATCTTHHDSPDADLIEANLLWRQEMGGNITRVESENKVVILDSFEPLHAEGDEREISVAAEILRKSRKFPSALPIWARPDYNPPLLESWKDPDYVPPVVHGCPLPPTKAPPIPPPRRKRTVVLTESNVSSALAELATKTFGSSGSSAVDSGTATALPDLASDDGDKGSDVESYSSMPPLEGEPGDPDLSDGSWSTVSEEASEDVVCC",
  "assay": "SPR; Biacore 3000, HBS buffer (10 mM Hepes-NaOH pH 7.4, 150 mM NaCl, 0.005% Tween-20), 25°C; GST-SH3 captured on CM5 chip via amine-coupled anti-GST antibody; NS5A 3 μM - 100 nM flowed over, in triplicate; 1:1 Langmuir fit",
  "settings": "both partners purified",
  "data": [
    {"binder": "B1", "values": [
      {"measurement": "koff", "value": 0.00308, "unit": "s⁻¹"},
      {"measurement": "kon", "value": 4930, "unit": "M⁻¹ s⁻¹"}
    ]}
  ]
}
